According to US20220144945A1 (Biogen, published 2022):
Each block holds one binder with its values, some of them ahead of it.

Target: T1, LINGO-1 ectodomain (human, UniProt Q96FE5 42-561)
T1 construct: also called Sp35
T1 sequence: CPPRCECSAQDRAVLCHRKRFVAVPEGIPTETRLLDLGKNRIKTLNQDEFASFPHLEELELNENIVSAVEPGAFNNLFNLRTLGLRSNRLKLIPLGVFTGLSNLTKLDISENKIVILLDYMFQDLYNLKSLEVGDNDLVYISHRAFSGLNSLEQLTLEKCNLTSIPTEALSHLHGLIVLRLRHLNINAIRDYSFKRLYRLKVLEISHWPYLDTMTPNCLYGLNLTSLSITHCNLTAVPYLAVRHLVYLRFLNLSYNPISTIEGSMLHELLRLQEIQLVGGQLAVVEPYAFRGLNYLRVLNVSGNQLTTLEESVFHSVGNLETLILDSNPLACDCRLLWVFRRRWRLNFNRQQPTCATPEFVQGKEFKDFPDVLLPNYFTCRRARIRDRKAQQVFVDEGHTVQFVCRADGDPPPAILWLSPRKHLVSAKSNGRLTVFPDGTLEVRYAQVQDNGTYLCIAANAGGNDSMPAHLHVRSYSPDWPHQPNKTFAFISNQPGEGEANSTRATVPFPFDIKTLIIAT
Test: method not stated

Kd: ≤ 0.02 nM
B1: Li81 (antibody, human IgG1, kappa, V domains shown)
VH: EVQLLESGGGLVQPGGSLRLSCAASGFTFSAYEMKWVRQAPGKGLEWVSVIGPSGGFTFYADSVKGRFTISRDNSKNTLYLQMNSLRAEDTAVYYCATEGDNDAFDIWGQGTTVTVSS
VL: DIQMTQSPATLSLSPGERATLSCRASQSVSSYLAWYQQKPGQAPRLLIYDASNRATGIPARFSGSGSGTDFTLTISSLEPEDFAVYYCQQRSNWPMYTFGQGTKLEIKR
notes: also called anti-LINGO-1 antibody; anti-Lingo-1

Kd: ≤ 0.05 nM
B2: Fab of Li81 (Fab, V domains shown)
VH: B1 VH
VL: DIQMTQSPATLSLSPGERATLSCRASQSVSSYLAWYQQKPGQAPRLLIYDASNRATGIPARFSGSGSGTDFTLTISSLEPEDFAVYYCQQRSNWPMYTFGQGTKLEIK
notes: also called Li81 Fab
